Consider one substance from publication doi:10.1101/2025.01.09.632146.

This experiment has as its target AtSAR1c-GFP (Arabidopsis thaliana) (UniProt O04834). The experiment in a line: co-IP.
UniProt O04834, sequence (O04834 whole entry): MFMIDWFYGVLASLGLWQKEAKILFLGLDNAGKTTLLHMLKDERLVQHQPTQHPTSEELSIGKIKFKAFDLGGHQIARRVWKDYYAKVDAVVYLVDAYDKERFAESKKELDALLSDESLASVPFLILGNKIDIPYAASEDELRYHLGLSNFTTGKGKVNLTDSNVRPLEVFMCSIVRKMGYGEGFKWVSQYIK

Regarding “endogenous AtPHF1 (from UniProt Q8GYE0 1-398) (natural protein)”, the fold co-immunoprecipitated against AtSAR1b[H74L]-CFP worked out at 4 fold; the fold co-immunoprecipitated against GFP came to 3 fold; the fold co-immunoprecipitated against GFP, normalised, Pi deficiency came out at 30 fold.
